These are literature values, as cited in article PMC3089900.

This data set addresses His276 (UniProt position 276, SEELDHALNDM). Put plainly: NMR. The settings on record: in the presence of troponin T fragment TnT1.

On to “alpha-tropomyosin (striated muscle alpha-Tm) (Oryctolagus cuniculus (inferred; the article's alpha-Tm sequence discussion and preparations are rabbit))”, for which the pKa is 7.27−7.98.
